Data: patent publication CN111662379A

What was measured:
[1] = target: T1, 重组SARS-CoV-2刺突蛋白胞外区 (extra cellular domain of spike protein, S-ECD) (SARS-CoV-2), P0DTC2; assay: indirect ELISA, S-ECD coated at 1μg/ml; details: remark: other sources report otherwise
[2] = target: T1, 重组SARS-CoV-2刺突蛋白胞外区 (extra cellular …); assay: SPR, Biacore 8K, S-ECD immobilised on a CM5 chip, antibody injected at 125nM~7.8nM; details: remark: other sources report otherwise

B1: FC05 (antibody)
chain 1: EVQLLEQSGAEVKKPGASVRVSCKVSGYTLPEVAMHWVRQAPGKGLEWMGGFDPEDGETIYAQKFQGRVTMTEDTSTDTAYMELSSLRSEDTAVYYCATTTPFSSSFWFDPWGQGTLVTVSS
chain 2: QSVLTQAPSVSGAPGQKVTISCSGSSSNIGNNYVSWYQQLPGTAPKLLIYDNNKRPSGIPDRFSGSKSGTSATLGITGLQTGDEADYYCGTWDSSLSAVVFGGGTKLTVL
[1]
  抗体滴度 (dilution 1:x from 1mg/mL): 320000
[2]
  Kd: 0.1 nM
